Data from US20260116991A1 (HAINAN SIMCERE ZAIMING PHARMACEUTICAL, published 2026).
Where a chain is given by its changes, count along the chain named.

B1: hAb001H1L1 (antibody, human IgG1, V domains shown)
VH: EVQLVESGGGLVQPGGSLRLSCAASGFSFNTNAMNWVRQAPGKGLEWVGRIRSKSNNYATYYADSVKDRFTISRDDSKNSLYLQMNSLKTEDTAVYYCVRDGYYVLFAYWGQGTLVTVSS
VL: DIVMTQTPLSLPVTPGEPASISCRFSQSIVNSNGNTYLEWFLQKPGQSPQLLIYKVSNRFSGVPDRFSGSGSGTDFTLKISRVEAEDVGVYYCFQGSHVPFTFGQGTKLEIK
notes: Humanized F2.169.2; VH H1 + VL L1; expressed as human IgG1
B2: hAb001H1aL1 (antibody, human IgG1, V domains shown)
VH: B1 VH with D68G
VL: B1 VL
notes: Humanized F2.169.2; VH H1a + VL L1; expressed as human IgG1
B3: hAb001H1L1a (antibody, human IgG1, V domains shown)
VH: B1 VH
VL: B1 VL with N33D
notes: Humanized F2.169.2; VH H1 + VL L1a; expressed as human IgG1
B4: hAb001H1aL1a (antibody, human IgG1, V domains shown)
VH: B1 VH with D68G
VL: B1 VL with N33D
notes: Humanized F2.169.2; VH H1a + VL L1a; expressed as human IgG1
B5: hAb001H1L1b (antibody, human IgG1, V domains shown)
VH: B1 VH
VL: B1 VL with G34A
notes: Humanized F2.169.2; VH H1 + VL L1b; expressed as human IgG1
B6: hAb001H1aL1b (antibody, human IgG1, V domains shown)
VH: B1 VH with D68G
VL: B1 VL with G34A
notes: Humanized F2.169.2; VH H1a + VL L1b; expressed as human IgG1
B7: hAb001H2L1 (antibody, human IgG1, V domains shown)
VH: B1 VH with N79S
VL: B1 VL
notes: Humanized F2.169.2; VH H2 + VL L1; expressed as human IgG1

Assays:
[1] = biological target: T1, human GPC3 on CHO-K1-human GPC3 cells (CHOK1-hGPC3.2B5) (human, UniProt P51654 25-554); experiment: FACS, CHOK1-hGPC3.2B5 cells;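 further: flow cytometry of humanized antibodies binding to the cells over one hour in the cold, read as cell mean fluorescence intensity, with EC50 obtained by curve fitting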
T1 construct: whole, on cells
Protocol: The desired cells were expanded to a logarithmic growth phase in a T-75 cell culture flask, the medium was removed by pipetting, and the cells were washed twice with a PBS buffer, and digested with trypsin. Then a complete medium was added to stop the digestion, and the cells were blown into a single cell suspension. After counting, the cells were centrifuged, and the cell pellet was resuspended with an FACS buffer (PBS+2% fetal bovine serum) to 2×10⁶ cells/mL. The cell resuspension solution was added to a 96-well FACS reaction plate at 50 μl/well, and a humanized antibody sample to be tested was added at 50 μl/well for incubation at 4° C. for 1 h. […] After the plate was centrifuged and washed 3 times with a PBS buffer, 100 μl of the resulting solution was assayed and analyzed by FACS (FACS Canto™, purchased from BD Biosciences). Data analysis was performed by software (FlowJo) to obtain the mean fluorescence intensity (MFI) of the cells. Then, analysis was performed by software (GraphPad Prism8), data were fitted, and EC₅₀ values were calculated.

[2] = biological target: biotinylated labeled human GPC3 protein (produced in-house) (human, UniProt P51654 25-559, limits assumed, biotinylated (Dojindo, Cat. No. LK03); sites not stated); experiment: ELISA, biotinylated human GPC3 protein

| Binder | EC50 [1] | Max MFI [1] | OD450 at 0.0008 nM [2] | OD450 at 0.004 nM [2] | OD450 at 0.02 nM [2] | OD450 at 0.11 nM [2] | OD450 at 0.53 nM [2] | OD450 at 2.67 nM [2] | OD450 at 13.33 nM [2] | OD450 at 66.66 nM [2] |
| --- | --- | --- | --- | --- | --- | --- | --- | --- | --- | --- |
| B1 | 0.313 nM | 3400 MFI | 0.162 OD450 | 0.341 OD450 | 0.926 OD450 | 2 OD450 | 2.64 OD450 | 2.67 OD450 | 2.72 OD450 | 2.74 OD450 |
| B2 | 0.269 nM | 3270 MFI | 0.184 OD450 | 0.327 OD450 | 0.874 OD450 | 1.85 OD450 | 2.33 OD450 | 2.42 OD450 | 2.54 OD450 | 2.67 OD450 |
| B3 | 3.65 nM | 2360 MFI | 0.114 OD450 | 0.157 OD450 | 0.477 OD450 | 1.43 OD450 | 2.39 OD450 | 2.5 OD450 | 2.6 OD450 | 2.63 OD450 |
| B4 | 1.63 nM | 2530 MFI | – | – | – | – | – | – | – | – |
| B5 | 0.399 nM | 3160 MFI | – | – | – | – | – | – | – | – |
| B6 | 0.325 nM | 3070 MFI | 0.174 OD450 | 0.298 OD450 | 0.809 OD450 | 1.93 OD450 | 2.5 OD450 | 2.62 OD450 | 2.72 OD450 | 2.76 OD450 |
| B7 | 0.359 nM | 3550 MFI | 0.169 OD450 | 0.324 OD450 | 0.895 OD450 | 1.97 OD450 | 2.5 OD450 | 2.6 OD450 | 2.58 OD450 | 2.6 OD450 |
